This assay deals with wild-type EGFR kinase domain (residues 672-998 of human EGFR) with N-terminal 6-His tag, linker and TEV site (human, UniProt P00533 672-998). Description: cell-based or functional assay.

As for SYLNGVMPPTQSFAPDPKYVSSKAL [25-residue MIG6 peptide (residues 340-364)], the “IC50, inhibition of activated EGFR kinase” value was about 100 µM.

Values taken from US20100323957A1 (University of California, published 2010).
